Sequences and labels used below:
B1: chimeric HIM34×CD3 bispecific antibody (chHIM34 BsAb) (bispecific antibody)
light: DIVMTQSPSSLSASLGGKVTITCKASQDINKYIAWYQHKPGKGPRLLIHYTSTLQPGIPSRFSGSGSGRDYSFSISNLEPEDIATYYCLQYDNLLTFGAGTKLELKRTVAAPSVFIFPPSDEQLKSGTASVVCLLNNFYPREAKVQWKVDNALQSGNSQESVTEQDSKDSTYSLSSTLTLSKADYEKHKVYACEVTHQGLSSPVTKSFNRGECTSGGGGSGGGGSGGGGSQVQLVQSGGGVVQPGRSLRLSCKASGYTFTRYTMHWVRQAPGKCLEWIGYINPSRGYTNYNQKFKDRFTISRDNSKNTAFLQMDSLRPEDTGVYFCARYYDDHYSLDYWGQGTPVTVSSGGGGSGGGGSGGGGSGGGGSGGGGSGGGGSDIQMTQSPSSLSASVGDRVTITCSASSSVSYMNWYQQTPGKAPKRWIYDTSKLASGVPSRFSGSGSGTDYTFTISSLQPEDIATYYCQQWSSNPFTFGCGTKLQITR
heavy: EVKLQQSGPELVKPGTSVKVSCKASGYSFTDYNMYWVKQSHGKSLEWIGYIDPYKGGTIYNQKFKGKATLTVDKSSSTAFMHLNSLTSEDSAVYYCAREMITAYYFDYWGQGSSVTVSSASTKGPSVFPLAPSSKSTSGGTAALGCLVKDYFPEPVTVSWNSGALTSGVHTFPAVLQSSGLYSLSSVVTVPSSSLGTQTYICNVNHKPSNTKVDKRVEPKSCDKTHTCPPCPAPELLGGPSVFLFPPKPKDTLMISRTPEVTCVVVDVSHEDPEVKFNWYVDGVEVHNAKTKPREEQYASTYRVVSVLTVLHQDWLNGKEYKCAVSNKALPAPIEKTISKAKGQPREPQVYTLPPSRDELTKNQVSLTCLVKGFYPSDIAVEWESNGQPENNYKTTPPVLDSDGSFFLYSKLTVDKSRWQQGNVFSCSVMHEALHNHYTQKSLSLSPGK
notes: IgG-scFv format (tetravalent); also called chHIM34×CD3 BsAb; chimeric CD33-BsAb
B2: humanized HIM34 BsAb L4H4 (bispecific antibody, human IgG1, V domains shown)
VH: QVQLVQSGAEVKKPGASVKVSCKASGYSFTDYNMYWVRQAPGQGLEWIGYIDPYKGGTNYAQKFQGRATLTVDKSSSTAYMELSRLRSDDTAVYYCAREMITAYYFDYWGQGSSVTVSS
VL: DIQMTQSPSSLSASVGDRVTITCKASQDINKYIAWYQHKPGKAPKLLIYYASNLQPGVPSRFSGSGSGRDFTFTISSLQPEDIATYYCLQYDNLLTFGAGTKLELK
notes: Tested as a humanized HIM34×CD3 BsAb in the IgG-scFv format (human IgG1 N297A/K322A, humanized OKT3 scFv on the light chain)
B3: humanized HIM34 BsAb L3H4 (bispecific antibody, human IgG1, V domains shown)
VH: B2 VH
VL: B2 VL with Y49H, A51T, N53T, Q55E, P56T, R69T
notes: Tested as a humanized HIM34×CD3 BsAb in the IgG-scFv format: human IgG1 with N297A/K322A, humanized OKT3 scFv on the light chain C-terminus via (G4S)3
B4: humanized HIM34 BsAb L4H7 (bispecific antibody, human IgG1, V domains shown)
VH: B2 VH with V5Q, N59I, A61N, Q65K, V72R, K74T, S76I
VL: B2 VL
notes: as for B2
B5: humanized HIM34 BsAb L4H1 (bispecific antibody, human IgG1, V domains shown)
VH: B2 VH with V5Q, K12V, A68V, L70M
VL: B2 VL
notes: as for B2

Numbering of substitutions follows the chain as printed. Numbers in names are those of the source.

One may read the Kd as the concentration at which binding is half-saturated. The low end stands for higher affinity, the high end for lower affinity. As usually defined, the koff is a measure of how fast the partners let go of each other. A higher koff goes with a short-lived complex. For orientation: kon means the rate constant with which the complex forms. Lower therefore signals slower complex formation.

T1 sequence (P20138 18-259 limits assumed): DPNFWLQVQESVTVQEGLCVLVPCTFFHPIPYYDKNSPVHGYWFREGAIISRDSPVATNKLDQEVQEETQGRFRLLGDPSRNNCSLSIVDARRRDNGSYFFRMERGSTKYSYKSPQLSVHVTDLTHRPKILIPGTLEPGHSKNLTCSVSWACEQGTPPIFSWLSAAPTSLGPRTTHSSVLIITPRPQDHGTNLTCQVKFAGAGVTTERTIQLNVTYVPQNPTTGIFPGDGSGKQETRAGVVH

The first test concerns the target T1, CD33 (immobilized on CM5 sensor chip) (UniProt P20138 18-259, limits assumed).
T1 construct: also called CD33 antigen
Kind of test: SPR (Biacore T-200), CD33 immobilized on CM5 chip. On the technique in general: In SPR one partner is held on a chip, and binding of the other changes the refractive index at the surface.
B1 showed a Kd of 128 pM, a koff of 0.000117 s⁻¹ and a kon of 914000 M⁻¹ s⁻¹.

Molecule B2 came in with a Kd of 1650 pM, a koff of 0.00743 s⁻¹ and a kon of 4.5e+06 M⁻¹ s⁻¹.

For B3, the affinity, expressed as Kd, was 955 pM; the koff came out at 0.00175 s⁻¹; the kon amounted to 1.84e+06 M⁻¹ s⁻¹.

The molecule B4 displayed a Kd of 198 pM, a koff of 0.00017 s⁻¹ and a kon of 861000 M⁻¹ s⁻¹.

B5: binding was characterised by a dissociation constant (Kd) of 1210 pM, the koff worked out at 0.00597 s⁻¹ and the kon amounted to 4.95e+06 M⁻¹ s⁻¹.

The target in another test is full length CD33 on cells (human, UniProt P20138 18-364). Put plainly: cell-based or functional assay.
Sequence of full length CD33 on cells (P20138 18-364): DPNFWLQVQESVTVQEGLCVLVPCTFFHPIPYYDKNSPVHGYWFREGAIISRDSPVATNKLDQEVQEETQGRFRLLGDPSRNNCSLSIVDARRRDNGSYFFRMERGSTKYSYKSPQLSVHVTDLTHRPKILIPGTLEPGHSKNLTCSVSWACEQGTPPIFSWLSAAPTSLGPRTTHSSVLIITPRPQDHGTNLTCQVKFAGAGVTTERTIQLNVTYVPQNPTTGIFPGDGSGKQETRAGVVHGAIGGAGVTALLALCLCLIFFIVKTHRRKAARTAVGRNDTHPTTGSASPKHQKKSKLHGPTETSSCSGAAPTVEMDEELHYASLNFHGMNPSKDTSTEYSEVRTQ
On to B1, for which the “EC50 of T cell cytotoxicity, 4-hour 51Cr release assay, C1498-CD33 cells” value was determined as 0.001 pM and the “EC50 of T cell cytotoxicity, 4-hour 51Cr release assay, THP1 cells” value worked out at 0.2 pM.

Values taken from patent US20220259307A1 (Memorial Sloan Kettering, published 2022).
